According to patent US20110318347A1:

Assays:
human CXCR4 (human) [1] = experiment: competition vs [125I]-238D4 (3 nM), membranes of HEK293T cells expressing CXCR4
human CXCR4 (human) [2] = experiment: competition with [125I]-CXCL12 on HEK293T-CXCR4 membranes
human CXCR4 (human) [3] = experiment: periplasmic fraction (1:10), displacement of [125I]-CXCL12, HEK293T-CXCR4 membranes; - = 0-29%, + = 30-69%, ++ = 70-100%
human CXCR4 (human) [4] = experiment: competition vs [125I]-238D2 (3 nM), membranes of HEK293T cells expressing CXCR4
human CXCR4 (human) [5] = experiment: competition with [125I]-238D2 on HEK293T-CXCR4 membranes
human CXCR4 (human) [6] = experiment: competition vs [125I]-CXCL12 (40 pM), membranes of HEK293T cells expressing CXCR4
human CXCR4 (human) [7] = biological target: human CXCR4 (human)
human CXCR4 (human) [8] = experiment: cell-based or functional assay
CCR5 = CCR5 (UniProt P51681); experiment: cell-based or functional assay
human CXCR4 (human) [9] = experiment: competition with [125I]-238D4 on HEK293T-CXCR4 membranes

Sequence of CCR5 (P51681 whole entry): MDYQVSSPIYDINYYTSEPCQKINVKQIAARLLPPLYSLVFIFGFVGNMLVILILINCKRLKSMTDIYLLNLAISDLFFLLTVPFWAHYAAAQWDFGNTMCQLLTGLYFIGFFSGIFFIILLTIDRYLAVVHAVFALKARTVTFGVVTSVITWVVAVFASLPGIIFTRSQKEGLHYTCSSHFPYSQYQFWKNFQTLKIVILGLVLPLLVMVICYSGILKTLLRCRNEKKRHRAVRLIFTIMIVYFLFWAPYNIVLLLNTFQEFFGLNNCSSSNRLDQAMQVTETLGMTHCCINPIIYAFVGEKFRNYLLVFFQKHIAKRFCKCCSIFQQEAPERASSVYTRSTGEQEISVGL

B1: Nanobody 238D4 (VHH, from a related filing, part only)
VHH: EVQLMESGGGLVQAGGSLRLSCAASGRTFNNYAMGWFRRAPGKEREFVAAITRSGVRSGVSAIYGDSVKDRFTISRDNAKNTLYLQMNSLKPEDTAVYTCAASAIGSGALRRFEYDYSGQGTQVTVSS
B1 was tested, and the Displacem. (%) (human CXCR4 (human) [1]) was 103%, the pKi (human CXCR4 (human) [1]) was 8.55 and the IC50 (read off the curve) (human CXCR4 (human) [2]) was 10 nM. The percent inhibition of specific [125I]-CXCL12 binding (human CXCR4 (human) [3]) was 70 to 100%, the Displacem. (%) (human CXCR4 (human) [4]) was 101% and the pKi (human CXCR4 (human) [4]) was 8.8. For the same binder, the IC50 (read off the curve) (human CXCR4 (human) [5]) was 3 nM, the Displacem. (%) (human CXCR4 (human) [6]) was 99% and the pKi (human CXCR4 (human) [6]) was 8.22. It also gave an IC50 (read off the curve), migration of Jurkat cells towards 0.3 nM CXCL12 (human CXCR4 (human) [7]) of 9 nM, an Anti-HIV-1 activity (in nM), MT-4/HE (human CXCR4 (human) [8]) of 82 nM and an Anti-HIV-1 activity (in nM), MT-4/NL4.3 (human CXCR4 (human) [8]) of 40.3 nM. It also gave an Anti-HIV-1 activity (in nM), PBMC/HE (human CXCR4 (human) [8]) of 13.6 nM, an Anti-HIV-1 activity (in nM), PBMC/NL4.3 (human CXCR4 (human) [8]) of 13.7 nM and an Anti-HIV-1 activity (in nM), U87.CD4.CXCR4/NL4.3 (human CXCR4 (human) [8]) of 107 nM. It also gave a CRE activation, HEK293T-CXCR4-CREbgal/0.01-100 nM CXCL12, Imax (%) (human CXCR4 (human) [8]) of 90%, a CRE activation, HEK293T-CXCR4-CREbgal/0.01-100 nM CXCL12, pKi or pIC50 (pKB by the text) (human CXCR4 (human) [8]) of 7.7 and a Chemotaxis, Jurkat/0.3 nM CXCL12, Imax (%) (human CXCR4 (human) [8]) of 101%. The Chemotaxis, Jurkat/0.3 nM CXCL12, pKi or pIC50 (human CXCR4 (human) [8]) was 8.31, the IC50, HIV-1 NL4.3, MT-4 cells, exp. 1 (human CXCR4 (human) [8]) was 0.833 µg/mL and the IC50, HIV-1 NL4.3, PBMC donor 1 (human CXCR4 (human) [8]) was over 1 µg/mL. For the same binder, the IC50, HIV-1 NL4.3, PBMC donor 2 (human CXCR4 (human) [8]) was 0.551 µg/mL, the IC50, HIV-1 UG270, PBMC donor 1 (human CXCR4 (human) [8]) was over 1 µg/mL and the IC50, HIV-1 UG270, PBMC donor 2 (human CXCR4 (human) [8]) was over 1 µg/mL. It also gave an IC90, HIV-1 NL4.3, MT-4 cells, exp. 1 (human CXCR4 (human) [8]) of over 1 µg/mL, an IC90, HIV-1 NL4.3, PBMC donor 1 (human CXCR4 (human) [8]) of over 1 µg/mL and an IC90, HIV-1 NL4.3, PBMC donor 2 (human CXCR4 (human) [8]) of over 1 µg/mL. For the same binder, the IC90, HIV-1 UG270, PBMC donor 1 (human CXCR4 (human) [8]) was over 1 µg/mL, the IC90, HIV-1 UG270, PBMC donor 2 (human CXCR4 (human) [8]) was over 1 µg/mL and the IP accumulation, HEK293T-CXCR4-Gαqi5/30 nM CXCL12, Imax (%) (human CXCR4 (human) [8]) was 90%. For the same binder, the IP accumulation, HEK293T-CXCR4-Gαqi5/30 nM CXCL12, pKi or pIC50 (human CXCR4 (human) [8]) was 8.39, the nM IC50, HIV-1 NL4.3, PBMC donor 1 (human CXCR4 (human) [8]) was over 67 nM and the nM IC50, HIV-1 NL4.3, PBMC donor 2 (human CXCR4 (human) [8]) was 36.7 nM. The nM IC50, HIV-1 UG270, PBMC donor 1 (human CXCR4 (human) [8]) was over 67 nM, the nM IC50, HIV-1 UG270, PBMC donor 2 (human CXCR4 (human) [8]) was over 67 nM and the Anti-HIV-1 activity (in nM), PBMC/BaL (CCR5) was over 100 nM. For the same binder, the Anti-HIV-1 activity (in nM), U87.CD4.CCR5/BaL (CCR5) was over 500 nM, the IC50, HIV-1 BaL, PBMC donor 1 (CCR5) was over 1 µg/mL and the IC50, HIV-1 BaL, PBMC donor 2 (CCR5) was over 1 µg/mL. For the same binder, the IC90, HIV-1 BaL, PBMC donor 1 (CCR5) was over 1 µg/mL, the IC90, HIV-1 BaL, PBMC donor 2 (CCR5) was over 1 µg/mL and the nM IC50, HIV-1 BAL, PBMC donor 1 (CCR5) was over 67 nM. It also gave a nM IC50, HIV-1 BAL, PBMC donor 2 (CCR5) of over 67 nM and an IC50 (read off the curve) (human CXCR4 (human) [9]) of 4 nM.
